Positions count from the first letter of the chain named.
T1: human FcγRIIa type H (human, UniProt P12318 36-217)
T1 construct: also called FcgRIIaH; FcγRIIa(H)
T1 sequence: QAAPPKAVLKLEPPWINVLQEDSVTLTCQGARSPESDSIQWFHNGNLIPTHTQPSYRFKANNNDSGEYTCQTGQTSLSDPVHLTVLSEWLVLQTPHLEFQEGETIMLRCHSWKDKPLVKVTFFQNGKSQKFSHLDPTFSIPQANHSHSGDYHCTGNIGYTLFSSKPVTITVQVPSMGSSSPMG

T2: human FcγRIIa type R (human, UniProt P12318 36-217)
T2 construct: also called FcgRIIaR; FcγRIIa(R)
T2 chain: T1 sequence with H133R

T3: human FcγRIIb (human, UniProt P31994 43-217, limits assumed)
T3 construct: also called FcgRIIb; FcγIIB
T3 sequence: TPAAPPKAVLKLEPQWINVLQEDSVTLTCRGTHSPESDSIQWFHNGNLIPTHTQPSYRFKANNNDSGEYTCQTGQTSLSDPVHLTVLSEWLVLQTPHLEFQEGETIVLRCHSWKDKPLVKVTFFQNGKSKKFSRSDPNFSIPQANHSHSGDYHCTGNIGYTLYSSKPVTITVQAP

B1: IL6R-BP143/IL6R-L (antibody, human IgG1, name in EU numbering)
heavy: QVQLQESGPGLVKPSETLSLTCAVSGHSISHDHAWSWVRQPPGEGLEWIGFISYSGITNYNPSLQGRVTISRDNSKNTLYLQMNSLRAEDTAVYYCARSLARTTAMDYWGEGTLVTVSSASTKGPSVFPLAPSSKSTSGGTAALGCLVKDYFPEPVTVSWNSGALTSGVHTFPAVLQSSGLYSLSSVVTVPSSSLGTQTYICNVNHKPSNTKVDKKVEPKSCDKTHTCPPCPAPEYLGGDSVFLFPPKPKDTLMISRTPEVTCVVVDVSHEDPEVKFNWYVDGVEVHNAKTKPREEQYNSTYRVVSVLTVLHQDWLNGKEYKCKVSNAALPAPIEKTISKAKGQPREPQVYTLPPSRDELTKNQVSLTCLVKGFYPSDIAVEWESNGQPENNYKTTPPVLDSDGSFFLYSKLTVDKSRWQQGNVFSCSVMHEALHNHYTQESLSLSP
light: DIQMTQSPSSLSASVGDRVTITCRASQDISSYLNWYQQKPGKAPKLLIYYTSRLHSGVPSRFSGSGSGTDFTFTISSLQPEDIATYYCQQGNTLPYTFGQGTKVEIK
notes: copies: 2 + 2
B2: IL6R-BP133/IL6R-L (antibody, human IgG1, name in EU numbering)
heavy: B1 heavy with E235D, A328K, A332K
light: B1 light
notes: copies: 2 + 2
B3: IL6R-BP149/IL6R-L (antibody, human IgG1, name in EU numbering)
heavy: B1 heavy with E235D, G239D, Y298D, A332K
light: B1 light
notes: the list runs over r32 and r33; copies: 2 + 2
B4: IL6R-BP087/IL6R-L (antibody, human IgG1, name in EU numbering)
heavy: B1 heavy with A328K, A332K
light: B1 light
notes: copies: 2 + 2
B5: IL6R-G1d/IL6R-L (antibody, human IgG1)
heavy: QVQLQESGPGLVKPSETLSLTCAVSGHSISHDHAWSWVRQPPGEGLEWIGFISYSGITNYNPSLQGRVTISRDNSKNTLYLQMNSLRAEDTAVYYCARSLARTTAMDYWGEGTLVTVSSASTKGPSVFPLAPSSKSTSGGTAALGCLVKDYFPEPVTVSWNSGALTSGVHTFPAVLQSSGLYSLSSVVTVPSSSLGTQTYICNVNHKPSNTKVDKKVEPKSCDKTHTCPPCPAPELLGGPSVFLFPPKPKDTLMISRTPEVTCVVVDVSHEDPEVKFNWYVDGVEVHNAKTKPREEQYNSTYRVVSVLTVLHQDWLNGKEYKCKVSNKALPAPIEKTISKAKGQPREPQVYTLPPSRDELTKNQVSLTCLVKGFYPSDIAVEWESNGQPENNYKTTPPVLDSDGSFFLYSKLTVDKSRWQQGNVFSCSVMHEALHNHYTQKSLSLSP
light: B1 light
notes: Anti-human IL-6 receptor human IgG1 with G1d constant region (C-terminal Gly and Lys removed); template used for producing IL6R-B3; also called IgG1; copies: 2 + 2
B6: IL6R-BP145/IL6R-L (antibody, human IgG1, name in EU numbering)
heavy: B1 heavy with G239D, A328K
light: B1 light
notes: copies: 2 + 2
B7: IL6R-BP179/IL6R-L (antibody, human IgG1, name in EU numbering)
heavy: B1 heavy with Y236L, G239D, P273G, A332K
light: B1 light
notes: the list runs over r45 and r46; copies: 2 + 2
B8: IL6R-BP180/IL6R-L (antibody, human IgG1, name in EU numbering)
heavy: B1 heavy with Y236L, G239D, P273G, A328K, A332K
light: B1 light
notes: copies: 2 + 2
B9: IL6R-BP129/IL6R-L (antibody, human IgG1, name in EU numbering)
heavy: B1 heavy with E235D, Y236L, Y298D, A328K, A332K
light: B1 light
notes: copies: 2 + 2

What follows are binders tested against T4, human FcγRIa (human, UniProt P12314 16-292, limits assumed) (assay: SPR (Biacore), FcγR over captured antibody; binding amount divided by that of IL6R-BF648/IL6R-L x 100).
T4 construct: also called FcgRIa; FcγRI (CD64)
T4 sequence (P12314 16-292 limits assumed): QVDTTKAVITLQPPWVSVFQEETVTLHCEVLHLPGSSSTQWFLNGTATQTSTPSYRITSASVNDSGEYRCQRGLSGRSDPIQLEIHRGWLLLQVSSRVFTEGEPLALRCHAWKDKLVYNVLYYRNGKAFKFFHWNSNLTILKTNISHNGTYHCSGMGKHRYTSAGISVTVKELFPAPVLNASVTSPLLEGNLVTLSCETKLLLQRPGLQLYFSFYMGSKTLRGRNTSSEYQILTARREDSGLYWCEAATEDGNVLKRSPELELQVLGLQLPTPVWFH
Experimental: (§1) According to the following method, relative binding activities were calculated for the results of analyzing interactions with the respective FcγRs.

Binder | relative binding activity
B1 | 86 relative (IL6R-BF648/IL6R-L = 100)
B2 | 41 relative (IL6R-BF648/IL6R-L = 100)
B3 | 29 relative (IL6R-BF648/IL6R-L = 100)
B4 | 33 relative (IL6R-BF648/IL6R-L = 100)
B5 | 140 relative (IL6R-BF648/IL6R-L = 100)
B6 | 41 relative (IL6R-BF648/IL6R-L = 100)
B7 | 39 relative (IL6R-BF648/IL6R-L = 100)
B8 | 29 relative (IL6R-BF648/IL6R-L = 100)
B9 | 68 relative (IL6R-BF648/IL6R-L = 100)

The binders below were run against T1, human FcγRIIa type H in the same assay as above.
Experimental: as §1

Binder | relative binding activity
B1 | 143 relative (IL6R-BF648/IL6R-L = 100)
B2 | 151 relative (IL6R-BF648/IL6R-L = 100)
B3 | 401 relative (IL6R-BF648/IL6R-L = 100)
B4 | 179 relative (IL6R-BF648/IL6R-L = 100)
B5 | 1670 relative (IL6R-BF648/IL6R-L = 100)
B6 | 224 relative (IL6R-BF648/IL6R-L = 100)
B7 | 226 relative (IL6R-BF648/IL6R-L = 100)
B8 | 203 relative (IL6R-BF648/IL6R-L = 100)
B9 | 98 relative (IL6R-BF648/IL6R-L = 100)

The binders below were run against T5, human FcγRIIIa type V (human, UniProt P08637 17-208, limits assumed) in the same assay as above.
T5 construct: also called FcgRIIIaV; FcγRIIIa(V)
T5 sequence (P08637 other isoform, or with tags, fused parts or gaps limits assumed): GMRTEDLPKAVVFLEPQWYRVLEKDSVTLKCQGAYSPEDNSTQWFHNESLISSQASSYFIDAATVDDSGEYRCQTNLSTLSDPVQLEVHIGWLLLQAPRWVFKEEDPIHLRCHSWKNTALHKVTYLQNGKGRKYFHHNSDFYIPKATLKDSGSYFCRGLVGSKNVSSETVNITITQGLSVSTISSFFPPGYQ
Experimental: as §1

Binder | relative binding activity
B1 | 114 relative (IL6R-BF648/IL6R-L = 100)
B2 | 114 relative (IL6R-BF648/IL6R-L = 100)
B3 | 186 relative (IL6R-BF648/IL6R-L = 100)
B4 | 158 relative (IL6R-BF648/IL6R-L = 100)
B5 | 3350 relative (IL6R-BF648/IL6R-L = 100)
B6 | 153 relative (IL6R-BF648/IL6R-L = 100)
B7 | 125 relative (IL6R-BF648/IL6R-L = 100)
B8 | 100 relative (IL6R-BF648/IL6R-L = 100)
B9 | 95 relative (IL6R-BF648/IL6R-L = 100)

Biological target: T2, human FcγRIIa type R
Assay: as above
Experimental: as §1

Binder | relative binding activity
B1 | 238 relative (IL6R-BF648/IL6R-L = 100)
B2 | 174 relative (IL6R-BF648/IL6R-L = 100)
B3 | 539 relative (IL6R-BF648/IL6R-L = 100)
B4 | 163 relative (IL6R-BF648/IL6R-L = 100)
B5 | 650 relative (IL6R-BF648/IL6R-L = 100)
B6 | 350 relative (IL6R-BF648/IL6R-L = 100)
B7 | 570 relative (IL6R-BF648/IL6R-L = 100)
B8 | 602 relative (IL6R-BF648/IL6R-L = 100)
B9 | 111 relative (IL6R-BF648/IL6R-L = 100)

The binders below were run against T3, human FcγRIIb in the same assay as above.
Experimental: as §1

Binder | relative binding activity
B1 | 133 relative (IL6R-BF648/IL6R-L = 100)
B2 | 137 relative (IL6R-BF648/IL6R-L = 100)
B3 | 173 relative (IL6R-BF648/IL6R-L = 100)
B4 | 137 relative (IL6R-BF648/IL6R-L = 100)
B5 | 62 relative (IL6R-BF648/IL6R-L = 100)
B6 | 152 relative (IL6R-BF648/IL6R-L = 100)
B7 | 177 relative (IL6R-BF648/IL6R-L = 100)
B8 | 179 relative (IL6R-BF648/IL6R-L = 100)
B9 | 138 relative (IL6R-BF648/IL6R-L = 100)

Source: patent US20230257470A1 (published 2023)
